Reference: patent US7067277B1, “Chimeric G proteins and uses thereof” (H. Lundbeck A/S, priority 1999, dated 2006)
Positions count from the first letter of the chain named.

T1: h Y1 (Homo sapiens, UniProt P25929)
T1 construct: expressed in transfected cells; host or cells: COS-7
T1 sequence (P25929 1-384): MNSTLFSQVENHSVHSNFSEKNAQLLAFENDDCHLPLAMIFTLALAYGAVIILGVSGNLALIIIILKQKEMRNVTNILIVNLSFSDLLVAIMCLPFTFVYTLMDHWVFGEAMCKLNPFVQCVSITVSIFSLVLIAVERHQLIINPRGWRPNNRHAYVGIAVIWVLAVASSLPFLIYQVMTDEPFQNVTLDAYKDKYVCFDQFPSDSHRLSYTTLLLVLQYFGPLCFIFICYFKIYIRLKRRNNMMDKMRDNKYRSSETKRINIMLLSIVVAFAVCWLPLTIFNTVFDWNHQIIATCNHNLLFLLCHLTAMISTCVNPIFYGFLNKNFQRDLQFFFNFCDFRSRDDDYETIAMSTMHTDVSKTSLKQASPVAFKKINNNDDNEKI

T2: h Y2 (Homo sapiens, UniProt P49146)
T2 construct: expressed in transfected cells; host or cells: COS-7
T2 sequence (P49146 1-381): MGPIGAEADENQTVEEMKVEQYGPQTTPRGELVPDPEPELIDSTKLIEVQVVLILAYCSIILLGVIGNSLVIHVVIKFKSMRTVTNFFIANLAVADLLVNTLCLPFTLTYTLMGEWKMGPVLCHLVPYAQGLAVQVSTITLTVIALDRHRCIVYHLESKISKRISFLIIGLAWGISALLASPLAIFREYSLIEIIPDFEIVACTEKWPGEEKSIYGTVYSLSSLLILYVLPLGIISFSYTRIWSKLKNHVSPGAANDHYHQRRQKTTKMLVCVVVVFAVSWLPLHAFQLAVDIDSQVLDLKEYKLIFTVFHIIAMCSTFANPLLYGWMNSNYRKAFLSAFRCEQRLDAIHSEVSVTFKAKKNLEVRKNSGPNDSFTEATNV

T3: h α2B adr (Homo sapiens, UniProt P18089)
T3 construct: expressed in transfected cells; host or cells: COS-7
T3 sequence (P18089 1-450): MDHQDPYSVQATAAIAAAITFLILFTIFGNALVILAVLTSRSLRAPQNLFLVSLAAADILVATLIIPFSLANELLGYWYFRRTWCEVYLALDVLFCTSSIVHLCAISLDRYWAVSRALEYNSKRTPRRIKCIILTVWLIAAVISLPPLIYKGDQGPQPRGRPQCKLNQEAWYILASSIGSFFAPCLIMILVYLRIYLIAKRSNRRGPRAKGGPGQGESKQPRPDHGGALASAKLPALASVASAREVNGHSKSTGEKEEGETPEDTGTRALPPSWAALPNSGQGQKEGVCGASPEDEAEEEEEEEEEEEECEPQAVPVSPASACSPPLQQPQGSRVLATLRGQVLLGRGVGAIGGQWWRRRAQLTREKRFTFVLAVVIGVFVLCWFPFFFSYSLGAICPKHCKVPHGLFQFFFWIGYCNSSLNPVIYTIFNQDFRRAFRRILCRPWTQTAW

B1: cGαq/z5: chimeric Gα subunit: C-terminal final 5 amino acids of C. elegans Gαq replaced with those of hGαz (SEQ ID NO: 1) (protein)
chain: MACCLSEEAREQKRINQEIEKQLQRDKRNARRELKLLLLGTGESGKSTFIKQMRIIHGQGYSEEDKRAHIRLVYQNVFMAIQSMIRAMDTLDIKFGNESEELQEKAAVVREVDFESVTSFEEPYVSYIKELWEDSGIQECYDRRREYQLTDSAKYYLSDLRRLAVPDYLPTEQDILRVRVPTTGIIEYPFDLEQIIFRMVDVGGQRSERRKWIHCFENVTSIMFLVALSEYDQVLVECDNENRMEESKALFRTIITYPWFTNSSVILFLNKKDLLEEKILYSHLADYFPEYDGPPRDPIAAREFILKMFVDLNPDADKIIYSHFTCATDTENIRFVFAAVKDTILQHNLKYIGLC
modifications: C. elegans
B2: cGαq/z9: C. elegans Gαq with Gαz portion of the C-terminal tail extended to 9 amino acids (SEQ ID NO: 2) (protein)
chain: B1 chain with H347N
modifications: C. elegans

Experiments:
Format in all cases: cell-based
[1] = molecular target: h 5HT1E (Homo sapiens, UniProt P28566); assay: Calcium mobilization (FLIPR, Fluo-3) in transfected COS-7 cells; conditions: h 5HT1E + chimera in COS-7; agonist 5HT, max 100 μM
h 5HT1E, sequence (P28566 whole entry): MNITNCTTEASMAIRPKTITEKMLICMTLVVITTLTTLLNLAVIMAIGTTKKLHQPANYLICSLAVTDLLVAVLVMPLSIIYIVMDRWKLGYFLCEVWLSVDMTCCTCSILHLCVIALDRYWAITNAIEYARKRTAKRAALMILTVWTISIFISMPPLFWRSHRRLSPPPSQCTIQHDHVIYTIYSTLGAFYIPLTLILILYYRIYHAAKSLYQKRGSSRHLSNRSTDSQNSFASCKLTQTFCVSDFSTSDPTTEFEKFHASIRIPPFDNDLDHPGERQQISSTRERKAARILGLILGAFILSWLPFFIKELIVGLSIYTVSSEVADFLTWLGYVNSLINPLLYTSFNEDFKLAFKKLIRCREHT
Experimental: (§1) COS-7 cells were cultured in 225 cm^2 flasks in Dulbecco's Modified Eagle Medium (DMEM) with supplements (10% bovine calf serum, 4 mM glutamine, 100 units/ml penicillin and 100 μg/ml streptomycin) at 37° C., 5% CO2. Stock plates of COS-7 cells were trypsinized and split 1:6 every 3–4 days.
(§2) GPCR and chimeric G protein cDNAs were transiently transfected into COS-7 cells in 150 cm^2 flasks by the DEAE-dextran method (Cullen, 1987), using a total of 20 μg of DNA/˜7×10^6 cells. For evaluating the function of a single chimeric G protein, the standard cDNA transfection ratio was 1:1 (10 μg GPCR cDNA and 10 μg chimeric G protein cDNA). For evaluating the function of a mixture of chimeric G proteins, the standard cDNA transfection ratio was 8:1:1 (16 μg GPCR cDNA, 2 μg Gαq/z cDNA, 2 μg Gαq/s cDNA).
(§3) Twenty four hours after transient transfection, COS-7 cells were seeded into 96-well black wall microtiter plates coated with poly-D-lysine for assay the following day. Just prior to assay, culture medium was aspirated and cells were dye-loaded with 4 μM Fluo-3/0.01% pluronic acid in assay buffer composed of Hank's Balanced Salt Solution (138 mM NaCl, 5 mM KCl, 1.3 mM CaCl2, 0.5 mM MgCl2, 0.4 mM MgSO4, 0.3 mM KH2PO4, 0.3 mM Na2HPO4, 5.6 mM glucose) plus 20 mM HEPES (pH 7.4), 0.1% BSA and 2.5 mM probenicid (100 μl/well) for 1 hour in 5% CO2 at 37° C. After excess dye was discarded, cells were washed in assay buffer and layered with a final volume equal to 100 μl/well. Basal fluorescence was monitored in a fluorometric imaging plate reader (FLIPR™, Molecular Devices) with an excitation wavelength of 488 nm and an emission range of 500 to 560 nm. Laser excitation energy was adjusted so that basal fluorescence readings were approximately 10,000 relative fluorescent units. Cells were stimulated with agonists diluted in assay buffer (50 μl), and relative fluorescent units were measured at defined intervals (exposure=0.4 sec) over a 3 min period at room temperature. Maximum change in fluorescence was calculated for each well. Concentration-response curves derived from the maximum change in fluorescence were analyzed by nonlinear regression (Hill equation).

[2] = molecular target: h 5HT6 (Homo sapiens, UniProt P50406); assay: as above; conditions: h 5HT6 + chimera in COS-7; agonist 5HT, max 100 μM
h 5HT6, sequence (P50406 whole entry): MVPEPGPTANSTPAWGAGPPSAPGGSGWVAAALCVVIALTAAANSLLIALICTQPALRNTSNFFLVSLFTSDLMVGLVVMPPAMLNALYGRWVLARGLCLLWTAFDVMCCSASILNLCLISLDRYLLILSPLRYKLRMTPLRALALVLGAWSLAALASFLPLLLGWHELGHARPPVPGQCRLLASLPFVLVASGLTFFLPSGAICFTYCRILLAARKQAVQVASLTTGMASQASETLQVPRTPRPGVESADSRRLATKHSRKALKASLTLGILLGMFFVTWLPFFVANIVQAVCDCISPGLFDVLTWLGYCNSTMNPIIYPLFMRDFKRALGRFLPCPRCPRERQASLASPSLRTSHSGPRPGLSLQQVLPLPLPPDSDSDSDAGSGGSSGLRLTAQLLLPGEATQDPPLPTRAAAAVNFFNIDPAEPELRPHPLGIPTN
Experimental: as §1, §2, §3

[3] = molecular target: T4, h D2 (Homo sapiens, UniProt P14416); assay: as above; conditions: h D2 + chimera in COS-7; agonist DA, max 100 μM
T4 construct: expressed in transfected cells; host or cells: COS-7
T4 sequence (P14416 whole entry): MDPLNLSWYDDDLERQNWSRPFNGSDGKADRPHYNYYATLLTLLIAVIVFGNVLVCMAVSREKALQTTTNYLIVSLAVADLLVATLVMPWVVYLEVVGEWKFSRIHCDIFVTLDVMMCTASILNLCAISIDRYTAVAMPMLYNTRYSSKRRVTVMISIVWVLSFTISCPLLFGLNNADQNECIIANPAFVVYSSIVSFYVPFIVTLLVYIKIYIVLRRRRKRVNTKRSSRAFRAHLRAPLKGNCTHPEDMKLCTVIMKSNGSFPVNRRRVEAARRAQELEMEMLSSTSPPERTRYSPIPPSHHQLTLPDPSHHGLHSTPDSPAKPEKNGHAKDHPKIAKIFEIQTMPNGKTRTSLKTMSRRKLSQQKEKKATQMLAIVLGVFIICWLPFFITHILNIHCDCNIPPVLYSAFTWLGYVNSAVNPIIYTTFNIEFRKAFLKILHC
Experimental: as §1, §2, §3

[4] = molecular target: h D3 (Homo sapiens, UniProt P35462); assay: as above; conditions: h D3 + chimera in COS-7; agonist DA, max 100 μM
h D3, sequence (P35462 whole entry): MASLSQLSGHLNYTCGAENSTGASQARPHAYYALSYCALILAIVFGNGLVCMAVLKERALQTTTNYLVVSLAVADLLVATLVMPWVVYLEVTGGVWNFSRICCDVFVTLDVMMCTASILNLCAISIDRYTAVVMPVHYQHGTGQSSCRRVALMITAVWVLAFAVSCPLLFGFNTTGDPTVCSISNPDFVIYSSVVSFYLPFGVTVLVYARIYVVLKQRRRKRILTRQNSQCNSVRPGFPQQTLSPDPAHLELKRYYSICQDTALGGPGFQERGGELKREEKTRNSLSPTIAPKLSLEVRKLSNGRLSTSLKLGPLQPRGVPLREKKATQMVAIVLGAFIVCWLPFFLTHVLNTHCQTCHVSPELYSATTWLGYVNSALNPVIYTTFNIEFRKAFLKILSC
Experimental: as §1, §2, §3

[5] = molecular target: T1, h Y1; assay: as above; conditions: h Y1 + chimera in COS-7; agonist NPY, max 10 μM
Experimental: as §1, §2, §3

[6] = molecular target: T2, h Y2; assay: as above; conditions: h Y2 + chimera in COS-7; agonist NPY, max 10 μM
Experimental: as §1, §2, §3

[7] = molecular target: T3, h α2B adr; assay: as above; conditions: h α2B adr + chimera in COS-7; agonist NE, max 100 μM
Experimental: as §1, §2, §3

[8] = molecular target: h β2 adr (Homo sapiens, UniProt P07550); assay: as above; conditions: h β2 adr + chimera in COS-7; agonist NE, max 100 μM
Experimental: as §1, §2, §3

[9] = system: panel of 36 different GPCRs, including Gαi/i-, Gαs-, and Gαq-coupling receptors; assay: Detection rate in COS-7 calcium mobilization over a GPCR panel; conditions: COS-7, single chimera co-transfected with each GPCR
Experimental: as §1
GPCR and chimeric G protein cDNAs were transiently transfected into COS-7 cells in 150 cm^2 flasks by the DEAE-dextran method (Cullen, 1987), using a total of 20 μg of DNA/˜7×10^6 cells. For evaluating the function of a single chimeric G protein, the standard cDNA transfection ratio was 1:1 (10 μg GPCR cDNA and 10 μg chimeric G protein cDNA). […]
Twenty four hours after transient transfection, COS-7 cells were seeded into 96-well black wall microtiter plates coated with poly-D-lysine for assay the following day. […] Basal fluorescence was monitored in a fluorometric imaging plate reader (FLIPR™, Molecular Devices) with an excitation wavelength of 488 nm and an emission range of 500 to 560 nm. Laser excitation energy was adjusted so that basal fluorescence readings were approximately 10,000 relative fluorescent units. Cells were stimulated with agonists diluted in assay buffer (50 μl), and relative fluorescent units were measured at defined intervals (exposure=0.4 sec) over a 3 min period at room temperature. Maximum change in fluorescence was calculated for each well. […]

Molecule	MAXIMAL SIGNAL (FLUORESCENCE UNITS) [1] [fluorescence units]	MAXIMAL SIGNAL (FLUORESCENCE UNITS) [2] [fluorescence units]	MAXIMAL SIGNAL (FLUORESCENCE UNITS) [3] [fluorescence units]	MAXIMAL SIGNAL (FLUORESCENCE UNITS) [4] [fluorescence units]	MAXIMAL SIGNAL (FLUORESCENCE UNITS) [5] [fluorescence units]	MAXIMAL SIGNAL (FLUORESCENCE UNITS) [6] [fluorescence units]	MAXIMAL SIGNAL (FLUORESCENCE UNITS) [7] [fluorescence units]	MAXIMAL SIGNAL (FLUORESCENCE UNITS) [8] [fluorescence units]	receptors generating positive signals (>500 fluorescence units) / receptors tested [9]
B1	229	1289	7615	0	7722	7708	4983	1842	28/36
B2	238	2287	4305	121	6728	5387	5138	1697	29/36
